Results: US20110268733A1 (Daiichi Sankyo, published 2011)
Numbering of substitutions follows the chain as printed. In names and notes the source's numbering stands.

T1: human Siglec-15 V-set domain (human, UniProt Q6ZMC9 39-165)
T1 construct: The His tag was cleaved with thrombin before use; also called human V-set domain
T1 sequence: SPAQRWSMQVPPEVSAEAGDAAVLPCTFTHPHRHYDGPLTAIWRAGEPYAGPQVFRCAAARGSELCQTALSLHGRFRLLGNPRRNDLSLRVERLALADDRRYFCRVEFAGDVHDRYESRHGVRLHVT

B1: h#32A1-T1 (antibody, human IgG1, kappa, V domains shown)
VH: EVQLVESGGGLVQPGGSLRLSCAASGFNFNDYFMNWVRQAPGKGLEWVAQIRNKIYTYATFYAESLEGRFTISRDNAKNSLYLQMNSLRAEDTAVYYCARSLTGGDYFDYWGQGTLVTVSS
VL: DIVMTQSPDSLAVSLGERATINCRASQSVTISGYSFIHWYQQKPGQPPKLLIYRASNLASGVPARFSGSGSGTDFTLTISSLQAEDVAVYYCQQSRKSPWTFGGGTKVEIKR
notes: Human IgG1 / kappa constant regions; also called humanized antibody of rat anti-mouse Siglec-15 #32A1 T1; h#32A1-T1H / h#32A1-T1L
B2: h#32A1-T6 (antibody, human IgG1, kappa, V domains shown)
VH: B1 VH with L4V, A24T, G42E, F70V, A77S, N79S, S80T, L81V, N86S, A99T
VL: B1 VL with M4L, N22S, K49R, V62I, V89T, Y91F, G103A
notes: Human IgG1 / kappa constant regions; also called humanized antibody of rat anti-mouse Siglec-15 #32A1 T6; h#32A1-T6H / h#32A1-T6L
B3: h#32A1-T2 (antibody, human IgG1, kappa, V domains shown)
VH: B1 VH with G42E, F70V, N86S
VL: B1 VL with N22S, K49R, Y91F, G103A
notes: Human IgG1 / kappa constant regions; also called humanized antibody of rat anti-mouse Siglec-15 #32A1 T2; h#32A1-T2H / h#32A1-T2L
B4: h#32A1-T3 (antibody, human IgG1, kappa, V domains shown)
VH: EVQIVESGGGLVQPGGSLRLSCATSGFNFNDYFMNWVRQAPEKGLEWVAQIRNKIYTYATFYAESLEGRVTISRDDSESSVYLQMSSLRAEDTAVYYCTRSLTGGDYFDYWGQGTLVTVSS
VL: B1 VL with M4L, N22S, P47Q, K49R, V62I, V89T, Y91F, G103A
notes: Human IgG1 / kappa constant regions; also called humanized antibody of rat anti-mouse Siglec-15 #32A1 T3; h#32A1-T3H / h#32A1-T3L
B5: h#32A1-T5 (antibody, human IgG1, kappa, V domains shown)
VH: B4 VH with I4V, E42G, V70F, D76N, E78K, S80T, S86N
VL: B1 VL with M4L, V62I, V89T, G104Q
notes: Human IgG1 / kappa constant regions; also called humanized antibody of rat anti-mouse Siglec-15 #32A1 T5; h#32A1-T5H / h#32A1-T5L
B6: rat anti-mouse Siglec-15 monoclonal antibody #32A1 (antibody, rat IgG2a, V domains shown)
VH: B4 VH with V5L, S7T, Q13K, M85V, V95I, T115V, L116M, S121L
VL: DIVLTQSPALAVSLGQRATISCRASQSVTISGYSFIHWYQQKPGQQPRLLIYRASNLASGIPARFSGSGSGTDFTLTINPVQADDIATYFCQQSRKSPWTFAGGTKLELRRA
notes: Whole rat IgG purified from nude mouse ascites; Cloning primers were designed from the rat IgG2a heavy chain and kappa light chain constant regions; also called #32A1 antibody; rat #32A1 antibody

How the values were obtained:
human Siglec-15-Fc [1] = target: T2, human Siglec-15-Fc (human); assay: ELISA, human Siglec-15-Fc immobilized at 1 µg/ml, antibody 1 to 0.004 µg/ml, fluorescence read-out
T2 construct: Expressed in 293-F cells, purified on Protein A; also called soluble human Siglec-15-Fc; human Siglec-15-Fc protein
T2 sequence (chain, as listed by the source limits assumed): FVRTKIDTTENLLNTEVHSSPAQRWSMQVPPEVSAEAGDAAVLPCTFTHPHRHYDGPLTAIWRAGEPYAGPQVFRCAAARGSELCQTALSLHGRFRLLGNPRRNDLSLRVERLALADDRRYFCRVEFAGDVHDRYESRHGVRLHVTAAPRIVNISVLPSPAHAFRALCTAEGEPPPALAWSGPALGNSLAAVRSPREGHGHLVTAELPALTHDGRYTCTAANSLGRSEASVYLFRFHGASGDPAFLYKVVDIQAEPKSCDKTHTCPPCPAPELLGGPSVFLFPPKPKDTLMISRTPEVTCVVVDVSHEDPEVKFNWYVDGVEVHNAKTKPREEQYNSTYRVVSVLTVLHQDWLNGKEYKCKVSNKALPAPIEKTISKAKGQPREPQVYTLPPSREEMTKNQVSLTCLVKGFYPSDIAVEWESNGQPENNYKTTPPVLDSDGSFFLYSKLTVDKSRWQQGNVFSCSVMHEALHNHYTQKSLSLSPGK

[2] = target: T1, human Siglec-15 V-set domain; assay: competitive ELISA: V-set domain (0 to 20 µg/ml) pre-mixed with #32A1 (2 µg/ml), then added to captured human Siglec-15-Fc
Procedure: In a 96-well maxi-sorp plate (manufactured by Nunc, Inc., model number: 442404), 100 μl of a goat anti-human Fc antibody (Jackson ImmunoResearch, Inc., model number: 109-005-098) (1.25 μg/ml) was added to each well and immobilized overnight at 4° C. After the 96-well maxi-sorp plate was washed twice with PBS, 100 μl of the soluble human Siglec-15-Fc (1 μg/ml) was added to each well and immobilized at room temperature for 1 hour. Thereafter, 300 μl of a 5% skim milk/PBS solution was added to each well, and blocking of the wells was performed at room temperature for 3 hours. In the meantime, 2 μg/ml of the rat anti-mouse Siglec-15 monoclonal antibody #32A1 was mixed with an equivalent amount of 0, 0.032, 0.16, 0.8, 4, or 20 μg/ml of the human Siglec-15 V-set domain, and a reaction was allowed to proceed at room temperature for 1.5 hours. After the 96-well maxi-sorp plate had been washed twice with PBS, 100 μl of the mixed solution of the rat anti-mouse Siglec-15 monoclonal antibody #32A1 and the human Siglec-15 V-set domain was added thereto, and a reaction was allowed to proceed at room temperature for 1 hour. […] Then, 100 μl of a reaction stopping solution was added thereto, and an absorbance at 405 nm was measured.

human Siglec-15-Fc [3] = target: T2, human Siglec-15-Fc; assay: ELISA, human Siglec-15-Fc immobilized at 5 µg/ml, antibody 1.28 to 20,000 ng/ml
Procedure: The property of the rat anti-mouse Siglec-15 monoclonal antibody binding to human Siglec-15 protein was evaluated by an ELISA method. The human Siglec-15-Fc protein (subjected to replacement with A-PBS) produced in b) of Example 12 was diluted to 5 μg/ml with 0.1 M sodium carbonate buffer (pH 9.5), and the resulting solution was added to a 96-well plate (manufactured by Nalge Nunc International, Inc., Cat. No. 430341) at 100 μl/well. After the plate had been left at room temperature for 1 hour, the solution was removed and a washing buffer (phosphate-buffered saline containing 0.05% Tween 20) was added at 300 μl/well and then removed. After this washing procedure had been performed one more time, phosphate-buffered saline containing 25% BlockAce (manufactured by Dainippon Sumitomo Pharma Co., Ltd.) was added at 200 μl/well, and the plate was left at room temperature for 1 hour, whereby blocking was performed. The liquid was removed, and the plate was washed twice with 300 μl/well of the washing buffer. […] After developing the color, an absorbance at 492 nm was measured using a microplate reader (manufactured by Nihon Molecular Devices Corporation).

Row | Binder | binding result (human Siglec-15-Fc [1]) | binding result [2] | binding result (human Siglec-15-Fc [3])
1 | B1 | binds |  | 
2 | B2 | binds |  | 
3 | B3 | binds |  | 
4 | B4 | binds |  | 
5 | B5 | binds |  | 
6 | B6 |  | binds | binds
